Reference: PMC5381946 (PLoS Pathogens, 2017)
pIC50: −log10 of the molar value.

System: c-Jun;c-Fos (;)
Experiment: EMSA
Details: EMSA: 10 mM Tris-HCl pH 7.5, 50 mM NaCl, 5 mM MgCl2, 20 min at 37 C, then 20 min with DNA, 5% native TBE-PAGE at 4 C

**Q.** Which results are given for AP-1 oligonucleotide?
**A.** pIC50 (reduced APE1 + inhibitor C10 (IC50 of the compound, not of DNA)): 4.77; pIC50 (reduced APE1 + inhibitor E3330 (IC50 of the compound, not of DNA)): 4.44
